Source: the supplement of paper PMC9170038

Test system: MS2 coat protein
Experiment: apparent KD of MS2 coat protein; designed switch direction (-1 OFF switch, 1 ON switch): -1; higher = weaker reporter binding
Outline: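 SNAP-549-labelled MS2 coat protein was titrated, doubling from 0.7 or 1.5 nM to 3 µM, over designed RNA switches transcribed on Illumina chips by stalled E. coli RNA polymerase. Runs were done without input, with 200 uM small-molecule ligand, or with an oligonucleotide input. Apparent KD is the per-design median over clusters of curve-fitted normalised fluorescence.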

[1] = Eterna round: R95, input ligand: FMN 200 uM
[2] = Eterna round: R95, input ligand: microRNA oligo, concentration not stated
[3] = Eterna round: R95, input ligand: none
[4] = input ligand: microRNA oligo, concentration not stated

Sequence	apparent KD of MS2 coat protein [1] [nM]	apparent KD of MS2 coat protein [2] [nM]	apparent KD of MS2 coat protein [3] [nM]	apparent KD of MS2 coat protein (input ligand: FMN 200 uM) [nM]	apparent KD of MS2 coat protein (input ligand: none) [nM]	apparent KD of MS2 coat protein [4] [nM]
CUGAGCAGACGGAAAUCCAACAUGAGGAUCACCCAUGUCUCAAAAGCUUUUUGCUCGUCUUAUCCUCCUCUGUUCUC [Tiardia] (puzzle: Sensor v3, turn-off variant 1)	24.1	138	21.1			
AAUUCACAAGCGAGAUCCCACAUGAGGAUCACCCAUGUGCUCGUCUUAUAAGGUACUGUGACGAUAGUCACGGUACC [Mat - Sensor, turn-off var - Eli Mod - D87] (Eterna round: R97, puzzle: Sensor, turn-off variant 1)				16.4	16.1	
AACGUCUAGGUAGGAUAUCCACCAACAGGUGGAAGGAUAUGUACGCAGAAGGUUCGCCAACAGGCGGAGAAGGACCUACGCGUA [pwkr exNG2 2xF7 2xFMN.30] (Eterna round: R96, puzzle: Exclusion NG 2)				274	340	57.6
AGUAACCGUCACGAAAGUGAUGGUUACGCAAGCAAAUGUACAUGAGGAUCACCCAUGUCCUCAUUUGCUCGUCUUAU [Sensor 3 - 43] (puzzle: Sensor v3, turn-off variant 2)	19.6	362	17.7			
GAUCGUUUAGAGGAUAUCGUGCUAAACAUUACAUGAGAAGGCUAGACAUGAGGAUCACCCAUGUAUACUCGUGA [Exclusion 6 - 8:a] (puzzle: Exclusion 6)	23.7	14.7	18.7			
AUAACAAGCUUUUUGUUCGUAGAACAUGAUGCUCGAGUCACAUGAGGAUCACCCAUGUCAUCCAGAUUGAUAGUUGA [JR_SV3TOV2_Sub060] (puzzle: Sensor v3, turn-off variant 2)	39.5	51.2	40.3			
AGAUAGUCAGGAUAUUAGUGGUGGAGGGAUAAUUUUAUUUUUGAGAAGGGACAUGAGGAUCACCCAUGUAAUAU [JR_Ex4_Sub064] (Eterna round: R97, puzzle: Exclusion 4)				33.3	43.5	
GAUCUGUGAGGAUAUUUAUCGUAGUGCGUGUAGCCUGCGCCGGAGAAGGCACAUGAGGAUCACCCAUGUUCUAA [Eternabot (L1) Solution 45] (Eterna round: R97, puzzle: Exclusion 4)				57.2	51.8	
UGAUCCAAAGAGGAUAUGUCGGGCCAGGGCCCAACAGAAGGCUUUACAUGAGGAUCACCCAUGUUCGCGACAUG [EX6 A.22] (Eterna round: R97, puzzle: Exclusion 6)				481	558	
AGGACAUCAGGCGGCAUGUACAUGAGGAUCACCCAUGUCCUAGAAAGCUGUAUGCUCGUCUUAGGCCCAACCUCGCU [Eternabot (Original) Solution 13] (Eterna round: R97, puzzle: Sensor, turn-off variant 1)				65.1	61	
CGUGCGUAUGUGAGGAUAUGCUGGUCCUUGGAUCGGCAGAAGGCACAUGAGGAUCACCCAUGUGGUGUCGUUCA [salish99_Bmod_ex4_091] (puzzle: Brourd's mod of Exclusion 4)	31.3	108	173			
UAGAAACAUGAGGAUCACCCAUGUGAGGAUAUGAAAAAGAAAAGAAAAGAAAGAAGAAUCAGAAGGCACAAAGC [salish99-ex1_r3_092] (puzzle: Exclusion 1)	28.6	17.7	36.6			
AAUAACAAGCAAGAUCCUAACAUGAGGAUCACCCAUGUGCUCGUCUUGUAAAGUACUAUCACGAAAGUGAUAGUACA [Sensor 3, v1 - 48] (puzzle: Sensor v3, turn-off variant 1)	20	723	22.1			
UUUUUACAUGAGGAUCACCCAUGUCAGGAUAUGGUUAUAUUUUAUUAUUUUAUUUUUUCCAGAAGGGACUAUUA [My solution] (puzzle: Exclusion 1)		273				
GACUGGACAGGAUAUGUUCUUGAGCACUUGAGGAUCACCCAAGUCAUCAAGAACUCAGGCACAGAAGGGUUUAUGG [salish99_ex5_r4_010] (Eterna round: R97, puzzle: Exclusion 5)				23.3	12.1	
AUAUUUAGCUUUUUGUGAAACAUGAGGAUCACCCAUGUCCUCAUACCUGGACAUUUAAGUCUAGGAGCUCGUCUUAU [Last end dangle 2] (Eterna round: R97, puzzle: Sensor, turn-off variant 1)				479	612	
GAUCAUGCAGGAUAUACAUGGAUCAUGAAAACAUGAAUUUCACAUGAGGAUCACCCAUGUAGAAGGGCAUGAUC [Omei Ex2 A11] (Eterna round: R97, puzzle: Exclusion 2)				13.9	293	

Sequence	apparent KD of MS2 coat protein [1] [nM]	apparent KD of MS2 coat protein [2] [nM]	apparent KD of MS2 coat protein [3] [nM]	apparent KD of MS2 coat protein (input ligand: FMN 200 uM) [nM]	apparent KD of MS2 coat protein (input ligand: none) [nM]	apparent KD of MS2 coat protein [4] [nM]
GUAAAACAUGUAGGAUAUGCGUGGCAAAGCUAUGCAGAAGGACAUGAGGAUCACCCAUGUUAAAGCGUCUGAGUACAGAUGCAA [Mat - Exclusion NG 1 - Mod of JL - D96] (Eterna round: R96, puzzle: Exclusion NG 1)				445	36	27.4
CGUGUACGAGGAUAUAGAUUAGGUGACAUGAGGAUCACCCAUGUGAUCAAUCUAUUUGGUUUAGAAGGUGUACAUG [JR_Ex5_Sub052] (Eterna round: R97, puzzle: Exclusion 5)				15	14	
CCGUGGCAAGGAUAUACGUAGGAGAGGAAGGCAAGAGGAGGACAUGAGGAUCACCCAUGUAGAAGGUGCAGAUC [JR_Exclu2_Sub029] (puzzle: Exclusion 2)	62.3	77.4	94.5			
CCUCUACAUGAGGAUCACCCAUGUGAGGAUAUCCUGCGAGGAUCAAAAGAUCCUCGUGGGAGAAGGCAUAUGCA [Omei Ex1 A5] (Eterna round: R97, puzzle: Exclusion 1)				22.2	21	
AAUGAUGAUGUGAGGAUAUACAUAGUUAGACCGUAGUAGAAGGCACAUGAGGAUCACCCAUGUAGAUGUAAGGU [JR_BME4_Sub002] (puzzle: Brourd's mod of Exclusion 4)	26.3	17	17.7			
GCGUAUGAGCAGGAUAUCCGACGGGAAUCCAAAGGAGAAGGGCUCACAUGAGGAUCACCCAUGUGGUCCUAAAC [Vequat] (puzzle: Exclusion 6)		19.4				
CCCUCACAUGAGGAUCACCCAUGUAAGGAUAUCUUCGAUUUGACGUGGUUGGAUGCGAAGAGAAGGUACAAGGC [jl-ex1-4.72 ViennaUCT mod] (Eterna round: R97, puzzle: Exclusion 1)				35.9	20.6	
CUCGGACAUGAGGAUCACCCAUGUGAGGAUAUGGCGCUAUCGUCAUUAGACGAUUGCGCCAGAAGGCACAAAUG [LRO-Excl1-27] (puzzle: Exclusion 1)		80.7				
UUUUAACAUGAGGAUCACCCAUGUGAGGAUAUCGAAAUUUAUAUUUAUAUUUAUAUAACGAGAAGGCACAUUUU [JMF 95] (puzzle: Exclusion 1)		68.3				
AAUAAACAUGAGGAUCACCCAUGUGAGGAUAUGCAAAUAAAUAAUAAAAUAAAUAAAAGCAGAAGGCACAAUAA [JMF most obvious solution 1] (puzzle: Exclusion 1)	31.5	35	30.9			
UUGUUUUUCACAGGAUAUCGCCUCUUAUUACAUGAGGAUCACCCAUGUUUAUUUUGUUACAUGUUCGAGAAGGGUGUAGUCUUU [JR_ExcNG2_Sub047] (Eterna round: R96, puzzle: Exclusion NG 2)				586	475	368
GCCAGAGCAGGAUAUUCAAUAUAUCACAUGAGGAUCACCCAUGUCCAGCGAAAGCUGGAGGGAGAAGGGCUCUGGC [Fiskers Ex 5 - 16] (puzzle: Exclusion 5)	99.5	416	390			
CAGUACUGAGGAUAUACAUGAGGAUCACCCAUGUGUGUGAGAAAAGGAAGAAAAGAAUGUAGAAGGCGGUGCUG [JR_Ex3_Sub040] (Eterna round: R97, puzzle: Exclusion 3)				240	486	
UUUCAGCAAGGAUAUACGGGCUGUGCUUUUCAUUUCUUACAACAUGAGGAUCACCCAUGUAGAAGGUGCAACUU [Ex2 #10] (Eterna round: R97, puzzle: Exclusion 2)				110	26.5	
UUUUUAUAAGGAUAUAUGUGGAUAAUUUUUAUAUGAAAAUUACAUGAGGAUCACCCAUGUAGAAGGUAUGGAGG [-13.9, -11.8 kcal, 35% A] (Eterna round: R97, puzzle: Exclusion 2)				24	39.2	
UUGGAUAAUGUAGGAUAUGCAAGGCGAACCUAAGCAGAAGGACAUGAGGAUCACCCAUGUAAUGCGGUCUGCGUACAGAUCGCA [12th something] (Eterna round: R96, puzzle: Exclusion NG 1)				79	22.1	29
GAGGCAUGCCGAGGUCCACACAUGAGGAUCACCCAUGUAAUGACAGGCUUUUUACUCGUUUUAUCGCUAUCGCGUUC [Incebece] (puzzle: Sensor v3, turn-off variant 1)	13.5	26.4	12.8			
